Consider 3 molecules from article PMC4519180 (2015).

No end group written: not given here. *: point of attachment. 6FAM = O=C1OC2(c3ccc(O)cc3Oc3cc(O)ccc32)c2cc(C(=O)*)ccc21

Chain of recombinant purified ABL SH3 domain alone (human) (chain, as listed by the source): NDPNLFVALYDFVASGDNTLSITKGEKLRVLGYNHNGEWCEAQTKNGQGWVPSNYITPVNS

This assay has as its target recombinant purified ABL SH3 domain alone (human).
For 6FAM-APTYPPPLPP [p40 probe peptide, labeled with 6-carboxyfluorescein], the Kd came to 400 nM. As for APSYSPPPPP [unlabeled p41 peptide], the Kd is 1500 nM. For 6FAM-APTMPPPLPP [3BP-1 probe peptide, labeled with 6-carboxyfluorescein] the value was 34000 nM.

As a reminder, the Kd is the constant that tells how readily two partners part at equilibrium.
